{
  "source": "patent US7244826B1",
  "about": "“Internalizing ERB2 antibodies” (The Regents of the University of California, priority 1998, dated 2007)",
  "molecules": {"B1": {"name": "F5 scFv (native purified soluble scFv) (scFv, not shown: small tags and cut ends)", "scFv": "QVQLVESGGGLVQPGGSLRLSCAASGFTFRSYAMSWVRQAPGKGLEWVSAISGRGDNTYYADSVKGRFTISRDNSKNTLYLQMNSLRAEDTAVYYCAKMTSNAFAFDYWGQGTLVTVSSGGGGSGGGGSGGGGSQSVLTQPPSVSGAPGQRVTISCTGSSSNIGAGYGVHWYQQLPGTAPKLLIYGNTNRPSGVPDRFSGFKSGTSASLAITGLQAEDEADYYCQFYDSSLSGWVFGGGTKLTVLG", "notes": "also called 3TF5; scFv-F5"}, "B2": {"name": "F5: internalizing human anti-c-erbB-2 scFv, SEQ ID NO: 1, ATCC plasmid deposit PTA-7843, also referred to as 3TF5 (protein)", "scFv": "B1 scFv"}},
  "key": {"[1]": {"molecular_target": "ErbB2 on cells (SKBR3, SK-OV-3, MCF7 tumor cell lines) (UniProt P04626)", "assay": "5.0 × 10^11 phage on about 1.0 × 10^5 SKBR3 cells at 37° C.; surface bound phage eluted with low pH glycine, titered on E. coli TG1"}, "[2]": {"molecular_target": "ErbB2 on cells (SKBR3, SK-OV-3, MCF7 tumor cell lines) (UniProt P04626)", "assay": "cell-based or functional assay"}, "SKBR3 cells [3]": {"test_system": "SKBR3 cells", "assay_type": "cell-based"}, "SKBR3 cells [4]": {"test_system": "SKBR3 cells", "assay_type": "cell-based", "remark": "listed apart in the source"}, "SK-OV-3 cells [5]": {"test_system": "SK-OV-3 cells", "details": "in vitro; cited from earlier work"}, "tumor": {"test_system": "tumor", "details": "cited from earlier work"}, "[6]": {"molecular_target": "ErbB2 on cells (SKBR3, SK-OV-3, MCF7 tumor cell lines) (UniProt P04626)"}, "[7]": {"molecular_target": "T1, ErbB2 (form in the assay not stated) (UniProt P04626 23-1255)", "T1 construct": "also called c-erbB2", "assay": "method and form of ErbB2 not stated"}, "SK-OV-3 cells [8]": {"test_system": "SK-OV-3 cells", "assay": "Staining of SK-OV-3 cells by native scFv", "assay_type": "cell-based", "details": "moderate ErbB2 expression"}, "[9]": {"assay": "Gel filtration of native scFv", "assay_type": "physicochemical"}, "MCF7 cells": {"test_system": "MCF7 cells", "assay": "Staining of MCF7 cells by phage antibodies or native scFv", "assay_type": "cell-based", "details": "low ErbB2 expression"}, "SKBR3 cells [10]": {"test_system": "SKBR3 cells", "assay": "Staining of SKBR3 cells by phage antibodies or native scFv", "details": "high ErbB2 expression; for staining of SKBR3 cells by phage antibody: phage-displayed"}, "[11]": {"test_system": "normal breast cell line HST578", "assay": "Staining of normal breast cell line by phage antibodies or native scFv", "assay_type": "cell-based"}, "ErbB2": {"molecular_target": "ErbB2 (Homo sapiens, UniProt P04626)", "assay": "Epitope mapping competition assay: inhibition of phage binding by soluble scFv", "source_text": "Bound phages were detected with an anti-M13 biotinylated Ab and streptavidin-PE.\nNeither of these phage were isolated when the same library was selected on recombinant ErbB2. […] This was confirmed using a competition assay (FIG. 2)."}, "[12]": {"details": "increasing concentrations of soluble scFv, bound phage by anti-M13 biotinylated Ab and streptavidin-PE, MFI"}},
  "note": "“Also recorded” adds a separate entry of the source. Read-outs that look alike come from different tables or passages of the source.",
  "data": [
    {"molecule": "C6.5 diabody phage", "values": [
      {"measurement": "titer of cell surface bound phage, 1st glycine wash", "setting": "[1]", "value": "1.8e+07"},
      {"measurement": "titer of cell surface bound phage, 2nd glycine wash", "setting": "[1]", "value": "2.8e+06"},
      {"measurement": "cells that had internalized phage (confocal microscopy, SKBR3 cells)", "setting": "[2]", "value": 20, "unit": "%"},
      {"measurement": "phage titer, Lysed cell fraction (internalized phage)", "setting": "[2]", "value": "1.7e+07"}
    ]},
    {"molecule": "C6.5 diabody: dimeric scFv from C6.5 V-genes, linker between VH and VL shortened from 15 to 5 amino acids", "values": [
      {"measurement": "increase of titer after cell lysis from the second glycine wash", "setting": "SKBR3 cells [3]", "value": "> 50", "unit": "fold"},
      {"measurement": "more phage bound to the cell surface than the anti-Botulinum phage", "setting": "SKBR3 cells [3]", "value": 30, "unit": "times"},
      {"measurement": "phage titer, 1st glycine wash", "setting": "SKBR3 cells [3]", "value": "1.8 × 10^7"},
      {"measurement": "phage titer, 2nd glycine wash", "setting": "SKBR3 cells [3]", "value": "2.8 × 10^6"},
      {"measurement": "phage titer, lysed cell fraction", "setting": "SKBR3 cells [3]", "value": "1.7 × 10^7"},
      {"measurement": "recovery of phage from inside the cell, higher than for anti-Botulinum phage", "setting": "SKBR3 cells [3]", "value": 200, "unit": "fold"},
      {"measurement": "cells that had internalized phage", "setting": "SKBR3 cells [4]; 37° C.", "value": "~20", "unit": "%"},
      {"measurement": "apparent affinity compared to C6.5 scFv", "setting": "SK-OV-3 cells [5]", "value": "significantly higher"},
      {"measurement": "% ID/g tumor", "setting": "tumor; at 24 hours, diabody study", "value": 6.5, "unit": "% ID/g"},
      {"measurement": "tumor:organ AUC ratios", "setting": "tumor; retentions examined over 72 hours, cumulative AUC", "value": "greater than reported for other monovalent or divalent scFv molecules"}
    ]},
    {"molecule": "C6.5 phage (anti-ErbB2 C6.5 scFv displayed on phage)", "values": [
      {"measurement": "titer of cell surface bound phage, 1st glycine wash", "setting": "[1]", "value": "1.2e+07"},
      {"measurement": "titer of cell surface bound phage, 2nd glycine wash", "setting": "[1]", "value": "5.2e+06"},
      {"measurement": "phage titer, Lysed cell fraction (internalized phage)", "setting": "[2]", "value": "6.8e+07"}
    ]},
    {"molecule": "irrelevant anti-Botulinum phage (scFv)", "values": [
      {"measurement": "phage titer, Lysed cell fraction (internalized phage)", "setting": "[2]", "value": 600000},
      {"measurement": "titer of cell surface bound phage, 1st glycine wash", "setting": "[6]", "value": 600000},
      {"measurement": "titer of cell surface bound phage, 2nd glycine wash", "setting": "[6]", "value": 100000}
    ]},
    {"molecule": "B1", "values": [
      {"measurement": "Kd", "setting": "[7]", "value": 320, "unit": "nM"}
    ]},
    {"molecule": "B2", "values": [
      {"measurement": "staining of SK-OV-3 cells by native purified scFv", "setting": "SK-OV-3 cells [8]", "value": "intermediate staining"},
      {"measurement": "oligomeric state by gel filtration", "setting": "[9]", "value": "only as a monomer with no appreciable dimerization or aggregation"},
      {"measurement": "staining of MCF7 cells by native purified scFv", "setting": "MCF7 cells; native purified scFv", "value": "minimal staining"},
      {"measurement": "staining of MCF7 cells by phage antibody", "setting": "MCF7 cells; phage-displayed", "value": "much more intensely then C6.5"},
      {"measurement": "staining of SKBR3 cells by native purified scFv", "setting": "SKBR3 cells [10]; native purified scFv", "value": "intensely stain"},
      {"measurement": "staining of SKBR3 cells by phage antibody", "setting": "SKBR3 cells [10]", "value": "intensely stain"},
      {"measurement": "staining of SKBR3 cells by phage antibody", "setting": "SKBR3 cells [10]; listed as 3TF5 phage", "value": "more intensely than C6.5 phage"},
      {"measurement": "staining of normal breast cell line HST578 by native purified scFv", "setting": "[11]", "value": "do not stain"},
      {"measurement": "internalization of native purified scFv by SKBR3 cells (in words)", "setting": "SKBR3 cells [4]", "value": "efficiently internalized; also recorded: internalized faster than C6.5"},
      {"measurement": "internalization of phage by SKBR3 cells at 4° C. (in words)", "setting": "SKBR3 cells [4]", "value": "no internalization"},
      {"measurement": "cells that had internalized phage", "setting": "SKBR3 cells [4]; 37° C.", "value": "greater than 95%"},
      {"measurement": "internalization of phage by SKBR3 cells (in words)", "setting": "SKBR3 cells [4]; 37° C.", "value": "internalized"},
      {"measurement": "epitope of F5 and C1 relative to each other", "setting": "ErbB2; competition assay", "value": "recognize the same epitope"},
      {"measurement": "epitope relative to C6.5", "setting": "ErbB2; competition assay", "value": "a different epitope than C6.5"},
      {"measurement": "epitope relative to Genentech anti-ErbB2 antibody 4D5", "setting": "ErbB2; competition assay", "value": "recognize a different epitope"},
      {"measurement": "inhibition of binding of C6.5 phage by soluble scFv", "setting": "ErbB2; [12]", "value": "not"},
      {"measurement": "inhibition of binding of F5 or C1 phage by soluble scFv", "setting": "ErbB2; [12]", "value": "inhibited"}
    ]}
  ]
}
